Drawing on publication PMC7275706, this text covers Kd, Ki and fold reduction of affinity against wild-type AC9 for seven substances.

For assay [1], the target named is fluorescein-labeled AC9_(419–452) with an additional N-terminal Cys (Toxoplasma gondii). The assay can be described thus: fluorescence polarisation; ERK7 2–358 serially diluted against 10 nM fluorescein-AC9 419–452, 20 μL in 384-well plate; single-site binding, global fit of three replicate experiments. (In general: Polarisation of emitted light reports the rotation of a fluorescent probe.)

Assay [2] concerns the target fluorescein-labeled synthetic MEK2_(4–16) peptide (rat) (rat) (UniProt P36506). Briefly: fluorescence polarisation; ERK7 titrated against 100 nM fluorescein-labeled synthetic MEK2 4–16 peptide; single-site binding, global fit.
For assay [3], the target named is Toxoplasma gondii ERK7 kinase domain, ERK7_(2–358). The assay can be described thus: fluorescence polarisation competition. Particulars: competition with fluorescein-labeled wild-type AC9.
Assay [4] deals with Toxoplasma gondii ERK7 kinase domain, ERK7_(2–358) (Toxoplasma gondii). The assay can be described thus: fluorescence polarisation; competition: unlabeled AC9 constructs titrated against 10 nM fluorescein-AC9 and 100 nM ERK7; single-site inhibition, global fit.
For assay [5], the target named is APS 609-621 (Rattus norvegicus) (UniProt Q9Z200). Conditions: cited from earlier work.
The target of assay [6] is Shc 423-435 (Homo sapiens) (UniProt P29353). Conditions: cited from earlier work.

Grb2 SH2, sequence (P62993 57-155): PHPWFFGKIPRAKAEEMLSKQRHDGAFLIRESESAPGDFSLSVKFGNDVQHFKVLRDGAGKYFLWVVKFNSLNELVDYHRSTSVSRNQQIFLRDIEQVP

“Toxoplasma gondii ERK7 kinase domain, ERK7_(2–358) (domain or fragment)”: the Kd came to 34 nM in assay [1] and 12000 nM in assay [2]. Take AC9 wild type R421A; K423A: in assay [3], the inhibition constant Ki came to 63 nM.

Consider WT AC9_(401–452) (domain or fragment), for which the inhibitory constant (Ki) in assay [4] was 15 nM. That is a double-digit nanomolar value. For the substance AC9_(W438A) (domain or fragment), the inhibitory constant (Ki) in assay [4] was 1600 nM. Consider AC9_(R421A/K423A) (domain or fragment), for which the fold reduction of affinity against wild-type AC9 in assay [4] came out at 4 fold. Consider Cbl TKB (from UniProt P22681), for which the Kd in assay [5] is 43 nM. As for Grb2 SH2 (from UniProt P62993), the Kd in assay [6] was 18 nM.

In general, Kd refers to the constant that tells how readily two partners part at equilibrium. The term Ki denotes the dissociation constant of the complex between target and ligand, obtained from inhibition or displacement. Read a low Ki as higher affinity.
